Reference: the RNAGym collection of RNA variant scans (doi:10.1073/pnas.2313332121)
Variants at the floor of the assay were thinned out.

B1: TPR 5TU (parent)
chain: GGAUCUUCUCGAUCUAACAAAAAAGACAAAUCUGCCACAAAGCUUGAGAGCAUCUUCGGAUGCAGAGGCGGCAGCCUUCGGUGGCGCGAUAGCGCCAACGUUCUCAACUAUGACACGCAAAACGCGUGCUCCGUUGAAUGGAGUUUAUCAUG

Variants of: B1
Assay: polymerase ribozyme fitness, log enrichment relative to wild type (log ratio); higher = more active; in vitro selection for triplet polymerase activity
Method in brief: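 Frozen incubation at −7 °C formed the core of a single, triplicate in vitro selection round applied to PCR-built, transcribed mutant libraries of each subunit of a heterodimeric triplet polymerase ribozyme. Extended constructs were gel-excised, captured with streptavidin beads and amplified by RT-PCR, and input and output libraries were Illumina-sequenced with a filter of ≥10 input reads and ≥1 read per output. Fitness is the logarithm of genotype enrichment relative to wild-type enrichment, with inverse-variance-weighted replicate averaging, and the logarithm is base 2.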

Variant	polymerase ribozyme fitness (log ratio)
G58A C75U C96G	0.314
G59C G81U G83A G124A G141U	0.692
G58C C87A	≤ -4.2
G58C C87U	-1.59
G58C C96U A98G A121G	-0.614
G59U G68A G83A A89U G94U G128U	≤ -4.2
G59C U82G C85A U102G	-4.09
G58U A142C	-0.408
G58U U82A A142G	-0.998
G59A U78G A91U U102G	≤ -4.2
G59C G100A A115C U144C	≤ -4.2
G58C U61C G70C C76G C96U A138G G140U C149G	≤ -4.2
G59C C85U	-0.507
G58C	0.0074
G58U	-0.0298
G59C G67A C85A G112U	≤ -4.2
G59C A106U	-0.917
G59C G86C C96U A121U	-3.29
G58A C85A	-1.11
G58U C72U C87U C99G G141C	≤ -4.2
G58A C85G C118A G126C	-3.62
G59C U61A	-1.51
G59C A107U G143U	≤ -4.2
G58A C75U A91G C95G	≤ -4.2

Variant	polymerase ribozyme fitness (log ratio)
G59C A97U	-0.431
G58A U61A G88C G133U	≤ -4.2
G58C A60G C75U	0.32
G59C A120U A122C A147G	-1.22
G59C G84A	-0.218
G58A G83U	0.174
G59C A89C C93U G117C A120G U135A	-3.35
G58C G140A	-3.51
G59A A89U	-0.162
G58C C118A	-0.0404
G59A G124U C125G G136U U139A U146A	≤ -4.2
G58C G86C A89U	-3.91
G59A C87U U101G G136C	-2.91
G59C C93U U102A A137G	-3.95
G59C G86C G143U	≤ -4.2
G58U G141C	0.501
G58U G141A	1.05
G58U G59A	0.429
G59A C96A G117U	-0.271
G58A G86A A110G A115C U151G	≤ -4.2
G59A C85U U102G A106C G141A	≤ -4.2
G59A G86U A119U G140U	-3.26
G58A C93U	-2
G58A C87U C93A U130G	≤ -4.2

Variant	polymerase ribozyme fitness (log ratio)
G59A A73G U90C C93G C131U U144G	≤ -4.2
G59A U90G C95G	≤ -4.2
G59A A64C G88C	≤ -4.2
G59C A64U C75U C132U	≤ -4.2
G59C G86A A89G	-4
G58A C85G G100U U144A	≤ -4.2
G59C G86U C95U	-2.13
G59C C87A U109A G133C	≤ -4.2
G58A C116U	0.457
G58A U82C A147C C149G	≤ -4.2
G58C C79U C85G G141U	≤ -4.2
G59A C118A	-0.536
G59A G94A A150C	≤ -4.2
G59A G74A	-3.23
G59A G140C U144G	-3.79
G59A C93A U135C U146A	-3.8
G59A G88U C116G	-3.56
G58C G152A	-2.01
G58A G80U G84A G88A	≤ -4.2
G58C U135G	-3.82
G58U U135C	-1.62
G58C A97G A98U U145C	-0.616
G58C C63U C95G	-2.14
G59A G84U A98G A115U	-3.58

Variant	polymerase ribozyme fitness (log ratio)
G59C G80A C93A	-3.86
G58C G70C G141A	≤ -4.2
G58A U102G A121U	-2.85
G59U C96U	-0.292
G59U C96A	-0.703
G59A A60G G94U C95A	-1.74
G58A G100U	-3.22
G59A G92U C114A A119U	-3.59
G58C A64G G65A G71A C95U U101G	≤ -4.2
G59C U61G G84A C95G A120C G143U	-4.18
G58U C63G A142C	-1.41
G59C G94A U101G A113C	≤ -4.2
G58U U82A C116U	0.803
G58C C87U U135A	-2.15
G59A A119U	-0.778
G58C G83C G117C	-0.409
G59A C149A	-3.65
G58C U78G C85G A106U A113G U144C	≤ -4.2
G58C C63U U102G A106U G126A C132A	≤ -4.2
G58U U61G C63U G74C G141C	≤ -4.2
G59A U127C	-1.23
G59A G70U C93G A113U	≤ -4.2
G59A G88U	-3.96
G59A G88C	-3.73

Variant	polymerase ribozyme fitness (log ratio)
G59A G88A	-4.04
G58A C72U C76A	-1.3
G59U G86A A147U	-0.0426
G58A A121C	0.557
G58C U144C	0.128
G58U C69G C87G	≤ -4.2
G58C A66G G140U	≤ -4.2
G58A U77C G80U U90G C93A A121G A142G	≤ -4.2
G59A G67A G86C C96G G140U U144C A147U	≤ -4.2
G58C C72U U101G	0.371
G58C C79G A107U U134A U139C	≤ -4.2
G59C U61G C96G C105U A115U A150U	≤ -4.2
G58C G83C G117C C131U	-0.976
G59A C132G U139C	-2.96
G59U G67C G136A	≤ -4.2
G59A U78C G88U C96U U109G G140C	≤ -4.2
G58U U61A U90A A142G	≤ -4.2
G59C G92A	-2.89
G58U G83A C85U	-0.262
G59U G68A U78C C93G G124A C131G G141U	≤ -4.2
G59A C123A	-0.0504
G59C C96U U146A	0.268
G59A C125A	0.12
G59C G124A	-1.57

Variant	polymerase ribozyme fitness (log ratio)
G58U C132G	-2.82
G58C U111G C116A A137C	≤ -4.2
G59A U82C U134A	-2.59
G59U C93U C114G	-3.92
G58A U61A A107G C118G A119G	≤ -4.2
G59U C76U C105A A113U C116U	≤ -4.2
G59A C99A G140U	-3.99
G58U A150C	-3.57
G59C G86C C118A	-2.85
G59U G86A C118G	-2.48
G58U A64G A91G A113U U135A	≤ -4.2
G58C G84A G112U	≤ -4.2
G59C C79U	-3.43
G58A C103U C118A C132A A138C	≤ -4.2
G58U G88C U130G	≤ -4.2
G58U C87U C125G	-0.741
G58A G83A G140U	-3.64
G59C C93U C116U U135G	-3.78
G58A G86U	-1.12
G59U	-0.206
G59C	0.0972
G59A	-0.0739
G58A U145G	0.851
G58A G133A	-4

Variant	polymerase ribozyme fitness (log ratio)
G58A G117U	1.04
G59U C69U C87G C105G C129A G141A	≤ -4.2
G59A C85U U134A	-3.92
G58C U102A C114A	-4.12
G59A A115G G140A	≤ -4.2
G58C U82G C132A	-2.83
G58A C76A G80C C85U A89G U90C U101G C149A	≤ -4.2
G58C A91C C125G	≤ -4.2
G58A C87A A98G A121C	≤ -4.2
G59C G81C G84C	≤ -4.2
G58A G83A A147C	-0.252
G59U C96U A142G	-1.66
G58C G62C C95G	-3.72
G59A A147U	1.25
G58U G62U C99U C118U U134C	≤ -4.2
G58C C93U	-1.71
G59A C85G G126U	-2.21
G59U A73G	-0.629
G58C A107C	-4.06
G58C C87G A98G	≤ -4.2
G58C U82G C99G	-1.45
G59A C93U A98U A138C	≤ -4.2
G58C A89G	-0.995
